# Results published in the supplement of paper PMC9170038.
# Key:
# MS2 coat protein = experiment: apparent KD of MS2 coat protein; higher = weaker reporter binding; details: Eterna round: R107
# Protocol: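 RNA-MaP round R107: designed RNA switches with theophylline, tryptophan, arginine or FMN aptamers are transcribed on-chip within common flanks. They are titrated with SNAP-549-labelled MS2 coat protein in RNA-MaP buffer (100 mM Tris pH 7.5, 80 mM KCl, 4 mM MgCl2), without ligand or with the indicated ligand. Median apparent KD per design.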
# [1] = tested on: K4 kissing-loop RNA reporter; experiment: apparent KD of K4 kissing-loop reporter; higher = weaker reporter binding; details: Eterna round: R107;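 also: bound reporter read as fluorescence of individual clusters on recovered sequencing chips by microscopy, with normalized cluster intensities fitted with a binding model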
# Protocol: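 RNA-MaP round R107: designed RNA switches with theophylline, tryptophan, arginine or FMN aptamers are transcribed on-chip within common flanks. They are titrated with a labelled K4 kissing-loop RNA reporter in RNA-MaP buffer (100 mM Tris pH 7.5, 80 mM KCl, 4 mM MgCl2), without ligand or with the indicated ligand. Median apparent KD per design.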
# [2] = input ligand: theophylline 20 uM
# [3] = input ligand: theophylline 2 mM
# [4] = input ligand: tryptophan 2.4 mM
Sequence,apparent KD of MS2 coat protein (MS2 coat protein; input ligand: arginine 13.2 mM),apparent KD of MS2 coat protein (MS2 coat protein; input ligand: none),apparent KD of MS2 coat protein (MS2 coat protein; [2]),apparent KD of MS2 coat protein (MS2 coat protein; [3]),apparent KD of MS2 coat protein (MS2 coat protein; [4]),apparent KD of K4 kissing-loop reporter ([1]; input ligand: FMN 200 uM),apparent KD of K4 kissing-loop reporter ([1]; input ligand: arginine 13.2 mM),apparent KD of K4 kissing-loop reporter ([1]; input ligand: none),"apparent KD of K4 kissing-loop reporter [1, 2]","apparent KD of K4 kissing-loop reporter [1, 4]"
AAAACAAUCUGAAGGAGCGUCACAUGAGGAUCACCCAUGUACAUGAGGAUCACCCAUGUGUGACAGGUAGGUCGCAGAAAAUACC [Exclusion Arginine B GF 3],111 nM,216 nM,183 nM,219 nM,200 nM,,,,,
AAAACACAUGAGGAUCACCCAUGUCAUGAUACCAGUCCACAUGAGGACCCUUGGCAGCAUAAAAUGGGUAACAUGAGGAUAACCC [AstrosEXyTheA#4],26.5 nM,,48.1 nM,,23.4 nM,,,,,
AAACAUGAGGAUCACCCAUGUUCAAUAGAUACCAGUGAUACGGUGCACCCUUGGCAGCUGUUGCUGAGUGAUGGUUCCCUCGGUA [#24 SameState-TheophyllineA],19.9 nM,,32.9 nM,,27.1 nM,,,,,
AAACGUUGCUGCGAUACCAGACAUGAGGAUCACCCAUGUACCAAGGUAAAGAAAUAACGUGUCCCUUGGCAGCGCAGCAACGAAA [MAT - Exclusion Theophlline B - Mod of Eli - D12],8.7 nM,10.2 nM,16.1 nM,143 nM,10.6 nM,,,,,
AAACUUCGCAUAGGAAAACUAUGUGAAGAUCGAGGACCGGUACGGCCGCCACUCGUCCUCAACAUGAGGAUCACCCAUGUAAUAA [Mat - Exclusion - Trytophan A - D3],22.8 nM,,23.7 nM,23 nM,,,,,,
AAAGCCUUGCCCGGUGUUCCGAAAGUGGAAGGAGCGCACAUUGGUGCAGGUAGGUCGCCACAUGAGGAUCACCCAUGUCUAGGCU [Isbeat],42.5 nM,34.1 nM,107 nM,135 nM,11.3 nM,,,,,
AAAGGAAGGUAAAAUAAAACUACAUGUGAAGGAGCGCCCGAAAGGGCAGGUAGGUCGCACAUGAGGAUCACCCAUGUCCUUCCAA [ArgEX 6 #SwitchBubble],206 nM,319 nM,315 nM,439 nM,293 nM,,,,,
AAAUAAAUAACUGAUACCAGUGGACUGACAUGAGGAUCACCCAUGUUGGGUUUUGUUGUCCACCCUUGGCAGCGGGCAUAUAAAA [#25 Exclusion-TheophyllineB],23.4 nM,,38.4 nM,,26.8 nM,,,,,
AAAUAAAUACAUGAGGAUCACCCAUGUGAAGGAGCGGCCGUUAGGCCAGGUAGGUCGCACAUGAAAGGGAAGCGAAAGAAAUAAU [MAT - Exclusion Arginine A - Mod of Eli - D7],12.2 nM,18.1 nM,25.9 nM,19 nM,19.2 nM,,,,,
AACAGUAUUAUAGAUACCAGCAGGUCAUAAGACAUGAGGAUCACCCAUGUGAAUGAGGUAUGCCCUUGGCAGCUAUGAGGUCCUC [theeternabot_sameState_MS2_Theo_B_18],113 nM,,185 nM,,126 nM,,,,,
AACAUGAGGAUCACCCAUGUAUGUUCCGAAGGAGCGCCACAUGAGGCAGGUAGGUCGCGGGUACAUGAGGAUCACCCAUGUGUCA [Exclusion Arginine A 3],56.5 nM,113 nM,170 nM,128 nM,174 nM,,,,,
AACAUGAGGAUCACCCAUGUCCCAUGUGAACGAGGACCGGUACGGCCGCCACUCGAAUGAGGCGGCACAUGAGGAUCACCCACAU [whbob_SS_trypto A_2s11],95.7 nM,,233 nM,237 nM,,,,,,
UGUGAUGUGUAGUGUGAUGUUUUGAAGGAUACCAGAGUGUUGUUAUUCCCUUGGCAGCUUGAGUGAUGUUUGAUGUUGUUGUUGU [aawemullin],,,,,,324 nM,179 nM,260 nM,229 nM,224 nM
UGUGAUGUGUAGUGUUAUGUUUUGCGGGAUACCAGAGUCUUUUUAUUCCCUUGGCAGCUUGAGUGAUGUUUGAUGCUGUUGUUGU [pwwamullin],,,,,,485 nM,349 nM,461 nM,463 nM,339 nM
UGUGUUUACCUGACUCAGUGAUGUUGAGAAGGAGCGUGAGAAGGCACAGGUAGGUCGCUCAACCUAAAUUCAGGUGAGCACUAAA,,,,,,134 nM,188 nM,173 nM,193 nM,142 nM
UGUGUUUACCUGACUCAGUGAUGUUGAGAAGGAGCGUGCUAAUGCACAGGUAGGUCGCUCAACCUAAAUUCAGGUGAGCACUAAA,,,,,,587 nM,250 nM,560 nM,271 nM,478 nM
UGUGUUUACCUGACUCAGUGAUGUUGAGAAGGAGCGUUCGAAAGAACAGGUAGGUCGCUCAACCUAAAUUCAGGUGAGCACUAAA,,,,,,264 nM,223 nM,376 nM,466 nM,322 nM
UGUUAUGUAUCAGGAUAUUAGUGUUGUUUGUUUAUGUUAGUGAUGUUGAUAUUUGUUUUAUGUAUUUAAGAAGGGAUUGAGAUGU [kkplmullin],,,,,,369 nM,339 nM,310 nM,359 nM,258 nM
UUAGAGAUCUCAGGAUAUCAGUGAUGUUGGUUGCCAGAUCUGAGAUAGAAUUCUAUCUCAGAUCAAUGAGAAGGGAGAUCUCAUU [AK4 Exc FMN B],,,,,,501 nM,313 nM,352 nM,317 nM,282 nM
UUAGAUCAAAGAUCAGUCUUAUGGAGGGAACGAGGACCGGUACGGCCGCCACUCGAGUGAUGUUCGAGAACCCUCGUGACAAAUU [AK4 EXC Tryptophan A],,,,,,196 nM,146 nM,189 nM,164 nM,297 nM

Sequence,apparent KD of MS2 coat protein (MS2 coat protein; input ligand: arginine 13.2 mM),apparent KD of MS2 coat protein (MS2 coat protein; input ligand: none),apparent KD of MS2 coat protein (MS2 coat protein; [2]),apparent KD of MS2 coat protein (MS2 coat protein; [3]),apparent KD of MS2 coat protein (MS2 coat protein; [4]),apparent KD of K4 kissing-loop reporter ([1]; input ligand: FMN 200 uM),apparent KD of K4 kissing-loop reporter ([1]; input ligand: arginine 13.2 mM),apparent KD of K4 kissing-loop reporter ([1]; input ligand: none),"apparent KD of K4 kissing-loop reporter [1, 2]","apparent KD of K4 kissing-loop reporter [1, 4]"
UUAGGAGUGGAAGGAUAUCCUGGUGUGGGUGGUGUUAGUGAUGUUGGUGGUGCAGUGAUGUUGCGCGGAGAAGGUCCGGUGUUGA [BDazzled - #4 - Exc. FMN B],,,,,,471 nM,384 nM,434 nM,554 nM,358 nM
UUAGUCUAGAGAAGGAGCGAGUGAUGUUUGCUAAGCUAUAUAAUAAAAUAUAGCAAAUUUACUCAGGUAGGUCGCUCUAGACAUU [AK3 Exc Arginine B],,,,,,153 nM,122 nM,98 nM,149 nM,74.2 nM
UUAGUCUAGAGAAGGAGCGCAGUGAUGUUGCGGUAUGUGAAAAUAUGUAUAUAAUAAUAAAUGCAGGUAGGUCGCUCUAGACAUU [AK2 Exc Arginine B],,,,,,68.4 nM,89.7 nM,64.9 nM,85.7 nM,54.3 nM
UUAUAAUUCAGUGAUGUUGAAAAUAUAACAGAGGAUAUGCGUUUAAGCAGAAGGCUGAAAUACUAUACUUUAAUCUAUUAAAUUU [JR_SSFMNA_Sub019],,,,,,232 nM,377 nM,313 nM,332 nM,212 nM
UUAUAUACGAGUGAUGUUCGUUAUUUAUCAGAGGAUAUGCUUAAAUGCAGAAGGCUGUAUUUCUAUUUGAUAUUAAAUUUUAUAA [JR_Nu3_ExcFMNA_Sub026],,,,,,90.8 nM,89.8 nM,66.8 nM,86.1 nM,57.3 nM
UUAUUAAUCACAGAUACCAGUCCAGAAUGAAUACUAUAGUGAUGUUAUAAUAAAGGGAAGGACCCUUGGCAGCUGUAAUAUAUUU [AstrosSsTheB#2],,,,,,525 nM,370 nM,499 nM,354 nM,320 nM
UUCGUAGUAGGAAACUAUUACGAAAAGGAAGGAGCGGCGAAGAAGCCAGGUAGGUCGCCUAUUGACAGUGAUGUUGUUAUGUAGA [#9],,,,,,172 nM,341 nM,241 nM,360 nM,142 nM
UUGCGGAGUGAUGUUUCGGGAUAUCGGGAAGGAGCGCCGAUAACGGCAGGUAGGUCGCCCGGUCCAGUGAUGUUGGGCAUGCAUU [Exclusion Arg A GF 23],,,,,,200 nM,136 nM,212 nM,201 nM,171 nM
UUGGCAGUGAUGUUGCCAGACAUCACCGAAGGAGCGGGCGAAAGCCCAGGUAGGUCGCGGUAGCGGAGUGAUUCUCCGCGAGGGC [Same State Arginine A GF 23],,,,,,957 nM,621 nM,937 nM,759 nM,829 nM
UUUAAAUAUAGUGAUGUUAUAUAACAAUGACGAGGACCGGUACGGCCGCCACUCGAGAGAGAUAAUGGUCGUUCGAAUCGAACGC [AstrosSSTryA#6],,,,,,599 nM,779 nM,672 nM,574 nM,410 nM
UUUAUAUAGUCGGCCGCCACUGAUUUUUUUAUAUGUUUAUGUUUAUACGAGUGAUGUUCGAUAUACAGGACCGGGACUUUGGUUA [JR_SSTryptoB_Sub019],,,,,,145 nM,207 nM,159 nM,224 nM,115 nM
UUUAUAUAGUCGGCCGCCACUGGAUUAAUAUUUGUAUAAUCUAGAUCAAAGUGAUGUUUUGAGUCCAGGACCGGGACAUUUGUUA [JR_ExcTryptoB_Sub006],,,,,,539 nM,391 nM,486 nM,525 nM,427 nM
UUUAUAUUCUGAGGAUAUCGUAUUAAUGAAGUGAUGUUUCAGUAUAUUCUAAUUAUAUAUAAUUUUCGAGAAGGCAGUAUUAUUU [JR_Nu3_SSFMNB_Sub028],,,,,,187 nM,243 nM,246 nM,320 nM,196 nM
UUUCGUUUCGUCUGACAUAAUUGGCUAGAAGGAGCGGUAAAAUUACCAGGUAGGUCGCUAGCCCAGUGAUGUUGGGACUAGCGUA [Edries],,,,,,124 nM,107 nM,114 nM,116 nM,125 nM
UUUCUAUCGGGAAGGAGCGUGAAUGAUAAUGGAUAUAGUGAUGUUAUAUAUAAGAACGAAUCGCAGGUAGGUCGCCCGGAUGACU [SSArgB.R],,,,,,346 nM,357 nM,323 nM,389 nM,169 nM
UUUGGAGAGGGAAGGAGCGUGAAAGAGAAAGAAUAUAGUGAUGUUAUAUAGAAGAAAGAAUCACAGGUAGGUCGCCCGGAGGAGG [SSArgB.D],,,,,,707 nM,865 nM,661 nM,990 nM,575 nM
UUUGUAUAGGGAAGGAGCGUGAAUGAUAAUGAAUAUAGUGAUGUUAUAUAUAAGAAAGAAUCACAGGUAGGUCGCCCGGAUGAGU [SSArgB.L],,,,,,432 nM,323 nM,477 nM,447 nM,356 nM
UUUUGCUAGCGAAACGCUAGCUUAACAGAUACCAGUCGCGAAAGCGACCCUUGGCAGCUGCUGAGUGAUGUUCAGGUGAGAGUUA,,,,,,387 nM,221 nM,344 nM,301 nM,312 nM
UUUUUGGUUUAGAGUGAUGUUCCUUGUAUUCGAGGACCGGUACGGCCGCCACUCGAAUAGAAAAGAAAAGAAAAGAGUGAUGUUU [BDazzled - #3 SS Tryptophan A],,,,,,308 nM,229 nM,292 nM,356 nM,252 nM
